Results as given in patent US20020151477, “Nuclear receptor coactivator” (published 2002).

Legend:
[1] = target: T1, TRβ/RXRα heterodimer (Homo sapiens (TRβ) / Rattus norvegicus …, UniProt P10828;Q05343 P10828:1-461,Q05343:1-467); assay: EMSA; oligomeric complex with GST-RAP250; conditions: tags: pCMVhTRβ and pBKCMVrRXRα, rabbit reticulocyte lysate TNT; label: 32P (dCTP)
T1 sequence 1: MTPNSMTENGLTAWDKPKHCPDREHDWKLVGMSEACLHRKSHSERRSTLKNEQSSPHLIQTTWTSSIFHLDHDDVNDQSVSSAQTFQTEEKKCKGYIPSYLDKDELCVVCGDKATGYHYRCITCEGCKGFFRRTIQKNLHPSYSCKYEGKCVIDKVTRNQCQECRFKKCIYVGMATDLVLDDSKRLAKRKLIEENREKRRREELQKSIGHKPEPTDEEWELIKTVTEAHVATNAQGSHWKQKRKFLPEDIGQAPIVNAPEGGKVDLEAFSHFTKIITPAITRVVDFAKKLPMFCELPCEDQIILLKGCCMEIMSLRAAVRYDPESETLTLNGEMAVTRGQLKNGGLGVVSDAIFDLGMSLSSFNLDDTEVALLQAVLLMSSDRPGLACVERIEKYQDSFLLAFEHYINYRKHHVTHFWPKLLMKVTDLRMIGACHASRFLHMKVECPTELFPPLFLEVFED
T1 sequence 2: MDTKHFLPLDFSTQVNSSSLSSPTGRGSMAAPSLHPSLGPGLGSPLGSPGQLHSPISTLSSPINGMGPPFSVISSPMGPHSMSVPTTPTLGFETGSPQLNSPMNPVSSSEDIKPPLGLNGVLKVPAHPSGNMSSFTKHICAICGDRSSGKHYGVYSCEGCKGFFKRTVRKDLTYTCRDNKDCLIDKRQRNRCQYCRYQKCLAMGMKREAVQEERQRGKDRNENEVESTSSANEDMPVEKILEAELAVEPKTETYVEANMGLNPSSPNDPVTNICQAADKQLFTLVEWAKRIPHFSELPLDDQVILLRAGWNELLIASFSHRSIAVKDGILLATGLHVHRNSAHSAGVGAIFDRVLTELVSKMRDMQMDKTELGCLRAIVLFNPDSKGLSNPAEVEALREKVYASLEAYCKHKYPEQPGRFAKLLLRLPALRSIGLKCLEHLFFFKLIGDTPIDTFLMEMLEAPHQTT

[2] = target: T2, TRα/RXRα + GST-RAP250 (818-931) complex (Homo sapiens (TRα) / Rattus norvegicus …, UniProt P10827-2;Q05343;Q9JL19 P10827-2:1-410,Q05343:1-467,Q9JL19:818-931); assay: EMSA; weak supershift without ligand, pronounced with T3 and/or 9-cis RA; conditions: tags: GST-RAP250 purified from E. coli; label: 32P (dCTP)
T2 chain 1: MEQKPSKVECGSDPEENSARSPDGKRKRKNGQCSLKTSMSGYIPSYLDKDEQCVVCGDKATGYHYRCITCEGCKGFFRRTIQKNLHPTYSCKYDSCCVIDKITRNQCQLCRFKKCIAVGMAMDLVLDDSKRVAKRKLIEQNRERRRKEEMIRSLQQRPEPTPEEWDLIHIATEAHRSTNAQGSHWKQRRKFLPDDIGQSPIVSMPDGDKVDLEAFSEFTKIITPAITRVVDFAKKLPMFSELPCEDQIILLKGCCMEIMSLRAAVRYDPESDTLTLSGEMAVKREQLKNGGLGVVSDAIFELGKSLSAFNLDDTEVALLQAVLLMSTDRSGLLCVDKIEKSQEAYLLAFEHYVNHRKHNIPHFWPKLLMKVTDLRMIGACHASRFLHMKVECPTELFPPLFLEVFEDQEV
T2 chain 2: T1 sequence 2
T2 chain 3: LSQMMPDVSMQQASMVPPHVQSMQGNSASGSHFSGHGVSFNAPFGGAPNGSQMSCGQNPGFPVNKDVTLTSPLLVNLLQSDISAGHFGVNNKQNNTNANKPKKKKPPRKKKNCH

[3] = target: T3, TRα/RXRα heterodimer (Homo sapiens (TRα) / Rattus norvegicus …, UniProt P10827-2;Q05343 P10827-2:1-410,Q05343:1-467); assay: EMSA; with and without T3 / 9-cis RA; GST alone does not interact with the complex; on ice; conditions: tags: pCMVhTRα and pBKCMVrRXRα, rabbit reticulocyte lysate TNT; label: 32P (dCTP)
T3 sequence 1: T2 chain 1
T3 sequence 2: T1 sequence 2

Measured: binding result

B1: DR4-TRE (dsDNA)
DNA 1: TCGATCAGGTCATTTCAGGTCAGAG
DNA 2: CTCTGACCTGAAATGACCTGATCGA
binds: all assays above
